From PMC6355003

B1: Drp1 (dynamin-related protein Drp1), wild type [not stated] / GST-MiD51^133-463, wild type [human] (parent)
chain 1: MEALIPVINKLQDVFNTVGADIIQLPQIVVVGTQSSGKSSVLESLVGRDLLPRGTGIVTRRPLILQLVHVSQEDKRKTTGEENGVEAEEWGKFLHTKNKLYTDFDEIRQEIENETERISGNNKGVSPEPIHLKIFSPNVVNLTLVDLPGMTKVPVGDQPKDIELQIRELILRFISNPNSIILAVTAANTDMATSEALKISREVDPDGRRTLAVITKLDLMDAGTDAMDVLMGRVIPVKLGIIGVVNRSQLDINNKKSVTDSIRDEYAFLQKKYPSLANRNGTKYLARTLNRLLMHHIRDCLPELKTRINVLAAQYQSLLNSYGEPVDDKSATLLQLITKFATEYCNTIEGTAKYIETSELCGGARICYIFHETFGRTLESVDPLGGLNTIDILTAIRNATGPRPALFVPEVSFELLVKRQIKRLEEPSLRCVELVHEEMQRIIQHCSNYSTQELLRFPKLHDAIVEVVTCLLRKRLPVTNEMVHNLVAIELAYINTKHPDFADACGLMNNNIEEQRRNRLARELPSAVSRDKVASGGGGVGDGVQEPTTGNWRGMLKTSKAEELLAEEKSKPIPIMPASPQKGHAVNLLDVPVPVARKLSAREQRDCEVIERLIKSYFLIVRKNIQDSVPKAVMHFLVNHVKDTLQSELVGQLYKSSLLDDLLTESEDMAQRRKEAADMLKALQGASQIIAEIRETHLW
chain 2: MSLQEKLLTYYRNRAAIPAGEQARAKQAAVDICAELRSFLRAKLPDMPLRDMYLSGSLYDDLQVVTADHIQLIVPLVLEQNLWSCIPGEDTIMNVPGFFLVRRENPEYFPRGSSYWDRCVVGGYLSPKTVADTFEKVVAGSINWPAIGSLLDYVIRPAPPPEALTLEVQYERDKHLFIDFLPSVTLGDTVLVAKPHRLAQYDNLWRLSLRPAETARLRALDQADSGCRSLCLKILKAICKSTPALGHLTASQLTNVILHLAQEEADWSPDMLADRFLQALRGLISYLEAGVLPSALNPKVNLFAELTPEEIDELGYTLYCSLSEPEVLLQT

Variants of: B1
Assay: GST pull-down, SDS-PAGE band quantification
Conditions: with GST-MiD51^133-463, wild type [human], read off a plot
[1] = Apo (no nucleotide), parent: 0.15

Row | Variant | response (1 mM GDP-AlFx, parent: 0.085) [molar ratio] | response (1 mM GDP, parent: 0.14) [molar ratio] | response (1 mM GMP-PNP, parent: 0.69) [molar ratio] | response (1 mM GTP, parent: 0.37) [molar ratio] | response [1] [molar ratio] | response (parent: 0.15) [molar ratio]
1 | chain 1 G401A P402A R403A P404A | 0.05 | 0.05 | 0.065 | 0.06 | 0.07 | –
2 | chain 1 K38A | 0.34 | 0.36 | 0.43 | 0.4 | 0.36 | 0.36
